Earlier results, collected in article PMC10747851.

Biological target: TfR (Homo sapiens) (UniProt P02786)
Sequence (P02786 89-760): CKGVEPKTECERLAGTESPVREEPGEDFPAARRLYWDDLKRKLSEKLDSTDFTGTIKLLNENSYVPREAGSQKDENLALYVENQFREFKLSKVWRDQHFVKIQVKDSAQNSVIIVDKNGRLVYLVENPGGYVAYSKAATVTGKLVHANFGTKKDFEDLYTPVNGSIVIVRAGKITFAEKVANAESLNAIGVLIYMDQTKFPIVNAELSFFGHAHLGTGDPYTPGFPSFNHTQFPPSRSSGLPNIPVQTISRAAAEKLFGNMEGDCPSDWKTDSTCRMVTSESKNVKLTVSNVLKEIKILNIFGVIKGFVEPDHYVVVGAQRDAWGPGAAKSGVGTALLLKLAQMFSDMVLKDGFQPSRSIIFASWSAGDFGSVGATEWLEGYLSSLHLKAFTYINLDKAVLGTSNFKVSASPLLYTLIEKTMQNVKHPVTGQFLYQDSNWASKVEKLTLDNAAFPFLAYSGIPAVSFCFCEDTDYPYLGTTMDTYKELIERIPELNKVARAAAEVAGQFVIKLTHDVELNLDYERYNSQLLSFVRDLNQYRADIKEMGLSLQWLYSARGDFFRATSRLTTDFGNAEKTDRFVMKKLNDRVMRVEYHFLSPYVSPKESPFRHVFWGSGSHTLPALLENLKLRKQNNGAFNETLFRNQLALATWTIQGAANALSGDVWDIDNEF

T7 peptide
Kd: 10 nM
